Results on one molecule are retold here after paper PMC12585912, “Solution structure of the Sox2 DNA-binding domain reveals conformational selection in DNA binding”.

This data set concerns the target Sox2(24-118) DBD (UniProt P48431 24-118). The data set is described as follows: NMR titration; 0.5 M ionic strength; specific binding in slow exchange, nonspecific mode reduced; 20 mM Tris, 135 mM KCl, 15 mM NaCl, pH 7.3 (NMR: 10% D2O, 0.01% NaN3, 293 K; nanoDSF: 25 uM protein, 1 mM DTT in protein/DNA buffer, 288-368 K at 1 K/min). To be noted: protein: recombinant; tags: N-terminal T7-tag; blunt. (DSF heats the sample and reads unfolding from a dye or from intrinsic fluorescence.)

Sequence of Sox2(24-118) DBD (P48431 24-118): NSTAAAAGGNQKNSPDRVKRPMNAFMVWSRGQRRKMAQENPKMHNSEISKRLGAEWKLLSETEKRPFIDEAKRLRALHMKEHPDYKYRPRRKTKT

B1: FGF4 DNA 13-mer (dsDNA)
DNA 1: ACTCTTTGTTCGA
DNA 2: TCGAACAAAGAGT
With B1, the binding result was “binds”.
